From publication PMC4834570

Target: A1-tagged Gal-1 (galectin-1) (UniProt P09382)
Test: FRET or BRET; in vitro sensitized acceptor emission FRET titration; 100 nM ATTO-488-labelled Gal-1 titrated with 100 nM to 1000 nM DY-547-labelled C-Raf-RBD; 25 mM HEPES, 100 mM NaCl, 3 mM MgCl2, 3 mM DTT, pH 7.2

A1-tagged C-Raf-RBD (from UniProt P04049 56-131) (domain or fragment)
Kd: 106 nM
